Source: patent publication US20180284135A1

Molecular target: T1, intact recombinant human POSTN (periostin, SEQ ID NO: 1)
T1 chain: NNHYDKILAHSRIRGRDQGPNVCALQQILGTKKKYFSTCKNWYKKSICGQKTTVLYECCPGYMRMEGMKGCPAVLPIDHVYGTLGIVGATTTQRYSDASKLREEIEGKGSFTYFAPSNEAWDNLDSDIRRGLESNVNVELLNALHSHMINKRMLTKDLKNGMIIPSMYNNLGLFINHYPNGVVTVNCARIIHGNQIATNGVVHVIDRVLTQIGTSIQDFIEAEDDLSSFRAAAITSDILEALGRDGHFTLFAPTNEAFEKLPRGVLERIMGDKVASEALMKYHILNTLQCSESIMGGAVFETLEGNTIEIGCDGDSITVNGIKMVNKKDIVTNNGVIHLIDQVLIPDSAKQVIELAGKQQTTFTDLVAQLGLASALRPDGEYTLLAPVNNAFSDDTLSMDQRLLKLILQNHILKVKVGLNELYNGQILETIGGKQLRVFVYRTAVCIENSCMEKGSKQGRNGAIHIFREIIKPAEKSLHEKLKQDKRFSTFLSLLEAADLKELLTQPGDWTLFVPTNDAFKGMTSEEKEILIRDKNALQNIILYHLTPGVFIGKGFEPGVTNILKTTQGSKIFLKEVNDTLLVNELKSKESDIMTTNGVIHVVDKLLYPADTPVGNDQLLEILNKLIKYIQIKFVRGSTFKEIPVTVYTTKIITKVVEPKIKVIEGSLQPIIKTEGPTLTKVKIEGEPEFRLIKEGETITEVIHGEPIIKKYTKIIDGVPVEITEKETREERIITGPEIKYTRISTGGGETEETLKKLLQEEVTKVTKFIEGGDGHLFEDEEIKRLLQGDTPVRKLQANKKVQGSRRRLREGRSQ

B1: human CatK of SEQ ID NO: 19 (Cathepsin K) (protein)
chain: APDSVDYRKKGYVTPVKNQGQCGSCWAFSSVGALEGQLKKKTGKLLNLSPQNLVDCVSENDGCGGGYMTNAFQYVQKNRGIDSEDAYPYVGQEESCMYNPTGKAAKCRGYREIPEGNEKALKRAVARVGPVSVAIDASLTSFQFYSKGVYYDESCNSDNLNHAVLAVGYGIQKGNKHWIIKNSWGENWGNKGYILMARNKNNACGIANLASFPKM
CatK digestion of human recombinant POSTN (SDS-PAGE, LC-MS/MS): human POSTN is a substrate to CatK-dependent enzymatic digestion that is generating large amount of several peptides
